Here are results for 7 molecules from PMC8346855 (Proceedings of the National Academy of Sciences of the …, 2021).

Holding throughout (conditions): both partners purified
Test [1] deals with T1, thermostabilized turkey beta-1 adrenergic receptor (turkey).
T1 construct: turkey beta-1 adrenergic receptor, thermostabilized, truncated at the C terminus and intracellular loop 3; the states are told apart by the assay; also called β1AR; apo-β1AR
Description: cross-linking + other: high-mass MALDI-MS; ligand-free (apo) GPCR, 5 µM, mixed with partner protein at various concentrations, 1 h at room temperature, BS(PEG)9 cross-linking, β-Gal as internal standard; 20 mM Hepes pH 7.5, 40 mM NaCl, 0.01% LMNG; Ka = 1/Kd.

In test [2] the target is T1, thermostabilized turkey beta-1 …. Description: cross-linking + other: high-mass MALDI-MS; isoprenaline-bound β1AR (iso-β1AR), 5 µM, mixed with partner protein at various concentrations, 1 h at room temperature, BS(PEG)9 cross-linking, 0.6 µM β-Gal as internal standard; 20 mM Hepes pH 7.5, 40 mM NaCl, 0.01% LMNG; Ka = 1/Kd.
The target is the same in test [3]. The experiment in a line: cross-linking + other: high-mass MALDI-MS; formation of β1AR•mGo with the titration of mGo, reading of EC50 (Graphpad); ligand state of β1AR not told for this curve.
For test [4] the target is unchanged. The experiment in a line: cross-linking + other: high-mass MALDI-MS; competition: Nb80 (0 to 13.3 µM) added to iso-β1AR (2.5 µM) and mGo (3.0 µM), 1 h at room temperature, BS(PEG)9 cross-linking, β-Gal as internal standard; read-out β1AR•mGo formation.
Test [5] concerns the target T2, thermostabilized turkey beta-1 adrenergic receptor (Meleagris gallopavo (turkey), stabilised).
T2 construct: beta-1 adrenergic receptor, turkey, thermostabilized, truncated at the C terminus and intracellular loop 3; Not treated with kinases; Small-molecule ligand states are told apart by the assay; also called β1AR; apo-β1AR; source: purified
The experiment in a line: cross-linking; competition: 2.5 μM β1AR, 3.0 μM mGo, increasing concentrations of Nb80; BS(PEG)9, high-mass MALDI-MS.

Test [6] has as its target T2, thermostabilized turkey beta-1 …. Description: cross-linking; Kd by titrating the partner protein against isoprenaline-bound β1AR; 20 mM Hepes pH 7.5, 40 mM NaCl, 0.01% lauryl maltose neopentyl glycol; BS(PEG)9, high-mass MALDI-MS, normalised to β-galactosidase.

T1 sequence (chain, as listed by the source): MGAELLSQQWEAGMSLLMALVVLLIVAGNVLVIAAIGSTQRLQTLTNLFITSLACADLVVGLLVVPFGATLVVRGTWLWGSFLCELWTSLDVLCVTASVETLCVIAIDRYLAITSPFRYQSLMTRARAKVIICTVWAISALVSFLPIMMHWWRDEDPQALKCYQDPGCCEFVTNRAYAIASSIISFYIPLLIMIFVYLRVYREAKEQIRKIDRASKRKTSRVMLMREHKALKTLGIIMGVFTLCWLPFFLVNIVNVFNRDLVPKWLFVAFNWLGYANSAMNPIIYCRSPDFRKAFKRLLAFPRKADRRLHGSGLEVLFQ
T2 sequence (P07700 other isoform, or with tags, fused parts or gaps, change not shown): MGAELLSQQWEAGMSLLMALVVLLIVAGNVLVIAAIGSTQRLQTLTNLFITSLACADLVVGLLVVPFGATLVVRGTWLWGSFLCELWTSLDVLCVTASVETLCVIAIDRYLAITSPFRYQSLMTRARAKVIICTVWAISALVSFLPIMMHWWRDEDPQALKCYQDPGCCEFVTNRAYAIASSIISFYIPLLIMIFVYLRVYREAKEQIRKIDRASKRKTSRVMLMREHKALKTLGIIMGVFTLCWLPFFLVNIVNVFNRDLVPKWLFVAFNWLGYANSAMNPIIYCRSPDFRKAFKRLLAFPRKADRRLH

B1: mini-Go truncated by its last five residues (domain or fragment)
chain: GIEKNLKEDGISAAKDVKLLLLGADNSGKSTIVKQMKIIHGGSGGSGGTTGIVETHFTFKNLHFRLFDVGGQRSERKKWIHCFEDVTAIIFCVDLSDYNRMHESLMDFDSICNNKFFIDTSIILFLNKKDLFGEKIKKSPLTICFPEYTGPNTYEDAAAYIQAQFESKNRSPNKEIYCHMTCATDTNNAQVIFDAVTDIIIANNLR
notes: mGo (Dm6) without its last five residues GCGLY; also called mGo_Δ5; source: E. coli, purified (same protocol as the mGα proteins); not shown: His tag, N-terminal, cleaved
As to B1, the Ka in test [1] turned out to be 3.57e+06 M⁻¹; in test [2] it was 4.17e+06 M⁻¹.

B2: mini-Gq (domain or fragment)
chain: GIEKQLQKDKQVYRATHRLLLLGADNSGKSTIVKQMRILHGGSGGSGGTSGIFETKFQVDKVNFHMFDVGGQRDERRKWIQCFNDVTAIIFVVDSSDYNRLQEALNDFKSIWNNRWLRTISVILFLNKQDLLAEKVLAGKSKIEDYFPEFARYTTPEDATPEPGEDPRVTRAKYFIRDEFLRISTASGDGRHYCYPHFTCAVDTENARRIFNDCKDIILQMNLREYNLV
notes: engineered from mGs (Dm5) by nine mutations on the α5-helix that correspond to residues of Gq; only residues of the α5-helix are those of Gq; also called mGq; source: E. coli, purified (Ni Sepharose, TEV cleavage, reverse Ni-NTA, gel filtration); not shown: His tag, N-terminal, cleaved
On to B2, for which the Ka in test [2] was determined as 810000 M⁻¹.

B3: mini-Gs (domain or fragment)
chain: GIEKQLQKDKQVYRATHRLLLLGADNSGKSTIVKQMRILHGGSGGSGGTSGIFETKFQVDKVNFHMFDVGGQRDERRKWIQCFNDVTAIIFVVDSSDYNRLQEALNDFKSIWNNRWLRTISVILFLNKQDLLAEKVLAGKSKIEDYFPEFARYTTPEDATPEPGEDPRVTRAKYFIRDEFLRISTASGDGRHYCYPHFTCAVDTENARRIFNDCRDIIQRMHLRQYELL
notes: thermostabilized truncated Gαs with the GTPase domain, lacking the α-helical domain; also called mGs; source: E. coli, purified (Ni Sepharose, TEV cleavage, reverse Ni-NTA, gel filtration); not shown: His tag, N-terminal, cleaved
Consider B3, for which the Ka in test [2] worked out at 2.86e+06 M⁻¹.

B4: mini-Gi (domain or fragment)
chain: GIEKQLQKDKQVYRATHRLLLLGADNSGKSTIVKQMRILHGGSGGSGGTSGIFETKFQVDKVNFHMFDVGGQRDERRKWIQCFNDVTAIIFVVDSSDYNRLQEALNDFKSIWNNRWLRTISVILFLNKQDLLAEKVLAGKSKIEDYFPEFARYTTPEDATPEPGEDPRVTRAKYFIRDEFLRISTASGDGRHYCYPHFTCAVDTENARRIFNDVTDIIIKMNLRDCGLF
notes: engineered from mGs (Dm5) by seven mutations on the α5-helix that correspond to residues of Gi; only residues of the α5-helix are those of Gi; also called mGi; source: E. coli, purified (Ni Sepharose, TEV cleavage, reverse Ni-NTA, gel filtration); not shown: His tag, N-terminal, cleaved
As for B4, the Ka in test [2] was found to be 620000 M⁻¹.

B5: mini-Go (domain or fragment)
chain: GIEKNLKEDGISAAKDVKLLLLGADNSGKSTIVKQMKIIHGGSGGSGGTTGIVETHFTFKNLHFRLFDVGGQRSERKKWIHCFEDVTAIIFCVDLSDYNRMHESLMDFDSICNNKFFIDTSIILFLNKKDLFGEKIKKSPLTICFPEYTGPNTYEDAAAYIQAQFESKNRSPNKEIYCHMTCATDTNNAQVIFDAVTDIIIANNLRGCGLY
notes: thermostabilized truncated form of the Gαo subunit with the GTPase domain, lacking the α-helical domain; also called mGo; source: E. coli, purified (Ni Sepharose, TEV cleavage, reverse Ni-NTA, gel filtration); not shown: His tag, N-terminal, cleaved
Regarding B5, the Ka in test [1] and in test [2] was 4e+06 M⁻¹ throughout. In addition, in test [3], the EC50 stood at 1.58 µM.

B6: nanobody 80 (VHH)
VHH: QVQLQESGGGLVQAGGSLRLSCAASGSIFSINTMGWYRQAPGKQRELVAAIHSGGSTNYANSVKGRFTISRDNAANTVYLQMNSLKPEDTAVYYCNVKDYGAVLYEYDYWGQGTQVTVSS
notes: nanobody 80; also called Nb80; NB80; not shown: His6, C-terminal, kept
For the molecule B6, the Ka in test [2] is 4.76e+06 M⁻¹. Further, the IC50 in test [4] worked out at 4.61 µM.

B7: nanobody 80 (VHH)
VHH: QVQLQESGGGLVQAGGSLRLSCAASGSIFSINTMGWYRQAPGKQRELVAAIHSGGSTNYANSVKGRFTISRDNAANTVYLQMNSLKPEDTAVYYCNVKDYGAVLYEYDYWGQGTQVTVSS
notes: also called Nb80; a Gs mimetic nanobody; source: purified
In test [5], B7 returned a Ki of 1.57 ± 0.24 µM. Besides, the Kd in test [6] is 0.21 µM.
